Assay results as given in publication PMC4683619.

Biological target: TNFR1 on L929 cells (mouse (endogenous in L929)) (UniProt P25118)
Sequence of UniProt P25118 (P25118 30-454): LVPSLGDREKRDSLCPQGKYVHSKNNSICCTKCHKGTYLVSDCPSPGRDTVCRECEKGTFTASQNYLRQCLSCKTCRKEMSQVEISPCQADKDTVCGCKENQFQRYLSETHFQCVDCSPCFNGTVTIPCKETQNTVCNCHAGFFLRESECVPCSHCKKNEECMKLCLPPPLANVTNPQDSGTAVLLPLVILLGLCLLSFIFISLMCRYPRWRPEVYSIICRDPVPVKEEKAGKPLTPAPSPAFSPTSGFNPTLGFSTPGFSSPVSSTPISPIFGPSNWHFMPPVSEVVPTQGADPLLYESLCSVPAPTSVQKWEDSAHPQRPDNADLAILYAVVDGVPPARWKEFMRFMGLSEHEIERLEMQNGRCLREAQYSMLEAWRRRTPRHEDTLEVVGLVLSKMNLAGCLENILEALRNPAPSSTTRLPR

Row | Substance | cytotoxicity against L929 cells (WST-1, with actinomycin D, 24 h), EC50 [ng/mL]
1 | randomly PEGylated scTNF-α (directly PEGylated PEG5K scTNF-α) (ligand) | 0.0046
2 | recombinant single-chain TNF-α, His tag cleaved, unmodified (ligand) | 0.00035
3 | PRINT PEG5K scTNF-α (N-terminal mono-PEGylated single-chain TNF-α) (ligand) | 0.00058
4 | PRINT PEG20K scTNF-α (N-terminal mono-PEGylated single-chain TNF-α) (ligand) | 0.00062
5 | citraconylated scTNF-α (ligand) | 0.0076
